Laboratory results reported in US20230228751 (APTAMER DIAGNOSTICS LIMITED, published 2023).
Positions count from the first letter of the chain named.

B1: S1_A8_F13 (ssDNA)
DNA: AATGCTGTGTTGACTTGATCCTGTGGTATATGGGTGGGAGGGTCGGGTACTATCCACAGGTCAAC
B2: S1_A9 (ssDNA)
DNA: CCAGTGTAGACTTACACCTGCAGTGTTCACGAGGGCCGGCGGTATATGGGCGGTTGATACGAGTACTATCCACAGGTCAACC
B3: S1_A8_F14 (ssDNA)
DNA: ACTTGATCCTGTGGTATATGGGTGGGAGGGTCGGGTACTATCCACAGGTCAAC
B4: S1_C1-B (ssDNA)
DNA: CCAGTGTAGACTACTCAATGCCGCTTCTCGACCGCCCCTTGTTTTGGTTCTTTTGTCCGTAGTACTATCCACAGGTCAACC
B5: S1_A6_F13 (ssDNA)
DNA: AATGCTGTTATGACTTGACCTTGGGTTATGGGTTTGGGCGGGAGGGTACTATCCACAGGTCAACC
B6: S1_C1-A (ssDNA)
DNA: CCAGTGTAGACTACTCAATGCTGTGTTGACTTGATCCTGTGGTATTTGGGTGGGAGGGGCGGGTACTATCCACAGGTCAACC
B7: S1_B12-B (ssDNA)
DNA: B6 DNA with T46A, G59A, C60T
B8: S1_A3_F12 (ssDNA)
DNA: CCAGTGTAGACTACTCAATGCGTGGGAAGGGTGGGTGGGAGCATTGATAACTCGGAGGAGTGTA
B9: S1_E5 (ssDNA)
DNA: CCAGTGTAGACTACTCAATGCCACCTCCTTTTCCGTTTCTTGTATCATGCTACTATCCTGTGTACTATCCACAGGTCAACC
B10: S1_A8_F12 (ssDNA)
DNA: CCAGTGTAGACTACTCAATGCTGTGTTGACTTGATCCTGTGGTATATGGGTGGGAGGGTCGGGT
B11: S1_A6_F12 (ssDNA)
DNA: CCAGTGTAGACTACTCAATGCTGTTATGACTTGACCTTGGGTTATGGGTTTGGGCGGGAGGGTA
B12: S1_C3-A (ssDNA)
DNA: CCAGTGTAGACTACTCAATGCTGTGTTGACTTGATCCTGTGGCATATGGGTGGGAGGGCGGGTACTATCCACAGGTCAACC
B13: S1_B4 (ssDNA)
DNA: B12 DNA with C43T, C59A
B14: S1_B9 (ssDNA)
DNA: B12 DNA with C43T
B15: S1_A3_F11 (ssDNA)
DNA: CCAGTGTAGACTACTCAATGCGTGGGAAGGGTGGGTGGGAGCATTGATAACTC
B16: S1_D11-B (ssDNA)
DNA: CCAGTGTAGACTACTCAATGCCGGCCGGGAGGGAGGGGTGGGTAAAGCCGCGCAACATATAGTACTATCCACAGGTCAACC
B17: S1_E3 (ssDNA)
DNA: CCAGTGTAGACTACTCAATGCCGATGGGTCGGGTGGGTGGGTAGGCATTGATCGCTCCTCCGTACTATCCACAGGTCAACC
B18: S1_B1 (ssDNA)
DNA: B17 DNA with C61A
B19: S1_B11-A (ssDNA)
DNA: CCAGTGTAGACTACTCAATGCGTGTGGTGACCTTGACCTTGGATTATGGGTTTGGGCGGGAGGGTACTATCCACAGGTCAACC
B20: S1_C2 (ssDNA)
DNA: CCAGTGTAGACTACTCAATGCGGCTGTGTGACTTGACCTCTGGATATGGGTGGGAGGGATGGGTACTATCCACAGGTCAACC
B21: S1_A4 (ssDNA)
DNA: CCAGTGTAGACTACTCAATGCGTGGGAAGGGTGGGCGGGAGCATTGATAACTCGGAGGAGCGTACTATCCACAGGTCAACC
B22: S1_A3-B (ssDNA)
DNA: CCAGTGTAGACTACTCAATGCCGATGGGTCGGGGGGGTGGGTAGGCATTGATCGCTCCTTTCGTACTATCCACAGGTCAACC
B23: S1_C8 (ssDNA)
DNA: B22 DNA with G54A, C55T
B24: S1_A1-A (ssDNA)
DNA: B22 DNA with G34T, T61C
B25: S1_B3 (ssDNA)
DNA: B22 DNA with C53T, G54C
B26: S1_A6_F14 (ssDNA)
DNA: ACTTGACCTTGGGTTATGGGTTTGGGCGGGAGGGTACTATCCACAGGTCAACC
B27: S1_A12 (ssDNA)
DNA: CCAGTGTAGACTACTCAATGCCGTGTGGTGACCTTGATCCTGTGGTATATGGGTGGGAGGGGCGGGTACTATCCACAGGTCAACC
B28: S1_D6 (ssDNA)
DNA: CCAGTGTAGACTACTCAATGCTACTGACTCATCTGCCGAATCCAAACCCGACCAGTCCACGGTACTATCCACAGGTCAACC
B29: S1_E6 (ssDNA)
DNA: CCAGTGTAGACTACTCAATGCCCAGTGGCGAGCGACTTTTTATGTAAGAACATCGATTTTCCATGGTACTATCCACAGGTCAACC
B30: S1_A1-B (ssDNA)
DNA: CCAGTGTAGACTACTCAATGCGGCTGTGTGACTTGACCTCTGGATATGGGAGGGAGGGCGGGTACTATCCACAGGTCAACC

Columns and labels:
Assay in all cases: BLI
[1] = target: SARS-CoV-2 spike S1 subunit (SARS-CoV-2, UniProt P0DTC2 SEQ:1-670); conditions: tags: His tag, SinoBiological 40591-V08B1; label: 5'-biotin
[2] = target: SARS-CoV spike S1 subunit (SARS-CoV, UniProt P59594 SEQ:14-667); conditions: tags: SinoBiological
[3] = target: SARS-CoV-2 spike RBD (SARS-CoV-2, UniProt P0DTC2 SEQ:1-223); conditions: tags: His tag, SinoBiological 40592-V08H

Row | Binder | binding result [1] | binding result ([2]; label: 5' biotin) | binding result ([3]; label: 5' biotin) | binding result ([2]; label: 5'-biotin) | binding result ([3]; label: 5'-biotin)
1 | B1 | binds |  |  |  | 
2 | B2 | binds | no binding | binds |  | 
3 | B3 | binds |  |  |  | 
4 | B4 | binds | no binding | binds |  | 
5 | B5 | binds |  |  |  | 
6 | B6 | binds |  | binds | no binding | 
7 | B7 | no binding | no binding |  |  | binds
8 | B8 | binds |  |  |  | 
9 | AATGCGTGGGAAGGGTGGGTGGGAG (ssDNA) [S1_A3_F17] | binds |  |  |  | 
10 | GGTATATGGGTGGGAGGGTCGGGT (ssDNA) [S1_A8_F22] | binds |  |  |  | 
11 | B9 | no binding | no binding |  |  | binds
12 | B10 | binds |  |  |  | 
13 | B11 | binds |  |  |  | 
14 | CCAGTGTAGACTACTCAATGCGTGGGAAGGGTGGGTGGGAGCATTGAT (ssDNA) [S1_A3_F10] | binds |  |  |  | 
15 | B12 | no binding | no binding |  |  | binds
16 | B13 | binds | no binding | binds |  | 
17 | B14 | binds | no binding | binds |  | 
18 | B15 | binds |  |  |  | 

Row | Binder | binding result [1] | binding result ([2]; label: 5' biotin) | binding result ([3]; label: 5' biotin) | binding result ([2]; label: 5'-biotin) | binding result ([3]; label: 5'-biotin)
19 | B16 | binds |  |  | binds | binds
20 | B17 | binds |  |  | no binding | binds
21 | B18 | binds | no binding | binds |  | 
22 | B19 | binds | no binding | binds |  | 
23 | B20 | binds | no binding | binds |  | 
24 | B21 | binds | no binding | binds |  | 
25 | B22 | binds |  | binds | no binding | 
26 | B23 | binds |  | binds | no binding | 
27 | B24 | binds | no binding | binds |  | 
28 | B25 | binds | no binding | binds |  | 
29 | B26 | binds |  |  |  | 
30 | B27 | binds | no binding | binds |  | 
31 | CCAGTGTAGACTACTCAATGCGTGGGAAGGGTGGGTGGGA (ssDNA) [S1_A3_F9] | binds |  |  |  | 
32 | B28 | no binding | no binding |  |  | binds
33 | ACTTGATCCTGTGGTATATGGGTGGGAGGGTCGGGT (ssDNA) [S1_A8_F20] | binds |  |  |  | 
34 | B29 | no binding | no binding |  |  | binds
35 | GTATATGGGTGGGAGGGTCGGGTACTATCCACAGGTCAAC (ssDNA) [S1_A8_F2] | binds |  |  |  | 
36 | B30 | binds | no binding | binds |  | 
